B1: E1D1, murine anti-gH/gL monoclonal antibody (antibody, V domains shown)
VH: EVQLEQSGPELVKPGASVKMSCKASGYTFTDYVISWVKQRTGQGLEWIGEIYPESGNTYYNEKFKGEATLTADKSSNTAYMQLSRLTSEDSAVYFCAEGYAMDFWGQGTSVTVSS
VL: DIVITQTPLSLPVSLGDQASISCRSSQSLLHSNGNTYLHWYLQRPGQSPKLLIYKVSNRFSGVPDRFSGSGSGTDFTLMINRVEAEDLGVYFCSQSIHVPRTFGGGTKLEIK
B2: AMMO1 with the first residue of the heavy chain substituted by an asparagine (antibody, V domains shown)
VH: NVQLVQSGADVKKPGASVKVSCKASGYTFIHFGISWVRQAPGQGLEWMGWIDTNNGNTNYAQSLQGRVTMTTDTSTGTAYMELRSLSTDDTAVYFCARALEMGHRSGFPFDYWGQGVLVTVSP
VL: SYELTQPPSVSVAPGQRATITCGGHNIGAKNVHWYQQKPGQAPVLVIQYDSDRPSGIPERFSGSNSGSTATLTISRVEAGDEADYYCQVWDSGRGHPLYVFGGGTKVTVL

Target: EBV gH/gL heterodimer, recombinant ectodomain (Epstein-Barr virus, UniProt P03231;P03212)
Assay: BLI

Binder	binding result
B1	binds
B2	binds

From article PMC5909843 (Immunity, 2018)
